Laboratory results published in PMC7293037, “Fuse to defuse: a self-limiting ribonuclease-ring nuclease fusion for type III CRISPR defence” (Nucleic Acids Research, 2020).

What was measured:
[1] = tested on: Csx1-Crn2 H495A (Marinitoga piezophila); assay: EMSA; conditions: apparent; both CARF and Crn2 sites intact, no cA4 cleavage in Crn2 site; cyclic tetra-adenylate, head-to-tail closed ring (no free 5' or 3' end); EMSA: 10 nM labelled cA4, 20 mM Tris-HCl pH 7.5, 150 mM NaCl, 2 mM MgCl2, 2 uM BSA, 10 min at 25 C; native 15% PAGE in 1x TBE at 28 C
[2] = tested on: Csx1-Crn2 S452Y (Marinitoga piezophila); assay: EMSA; conditions: cyclic tetra-adenylate, head-to-tail closed ring (no free 5' or 3' end); EMSA: 10 nM labelled cA4, 20 mM Tris-HCl pH 7.5, 150 mM NaCl, 2 mM MgCl2, 2 uM BSA, 10 min at 25 C; native 15% PAGE in 1x TBE at 28 C

For AAAA [cA4 (cyclic tetra-adenylate)], the Kd [1] was 20 nM and the Kd [2] was 1000 nM.
